# B1: OVA (protein, UniProt P01012 2-386, looked up)
# Ovalbumin: GSIGAASMEFCFDVFKELKVHHANENIFYCPIAIMSALAMVYLGAKDSTRTQINKVVRFDKLPGFGDSIEAQCGTSVNVHSSLRDILNQITKPNDVYSFSLASRLYAEERYPILPEYLQCVKELYRGGLEPINFQTAADQARELINSWVESQTNGIIRNVLQPSSVDSQTAMVLVNAIVFKGLWEKAFKDEDTQAMPFRVTEQESKPVQMMYQIGLFRVASMASEKMKILELPFASGTMSMLVLLPDEVSGLEQLESIINFEKLTEWTSSNVMEERKIKVYLPRMKMEEKYNLTSVLMAMGITDVFSSSANLSGISSAESLKISQAVHAAHAEINEAGREVVGSAEAGVDAASVSEEFRADHPFLFCIKHIATNAVLFFGRCVSP
# Tested on: small intestinal immune cells
# Assay: Droplet-based scRNA-seq of small intestinal immune cells (LP and PP), OVA vs PBS, clustering and differential expression
# Format: in vivo, mouse
# Conditions: cluster ID 6, PP
# Excerpt: To comprehensively characterize small intestinal immune cells, Applicants generated scRNA-Seq profiles for 58,067 immune cells collected from lamina propria (LP) and Peyer's patch (PP) regions at steady state and after induction of a type 2 inflammatory reaction to ovalbumin (OVA) (Brandt et al., 2003) (FIGS. 1A and 8A). To ensure sufficient representation of rare cells, Applicants combined a normalization strategy—removing by flow sorting either a portion of IgD+ naïve B cells, which are the most abundant cell type in PPs, or all CD19+ and CD3+ T cells (FIG. 8B, Methods)—with profiling of a sufficiently large number of cells number (P>0.99 to recover at least 15 cells from each cluster, Methods) by massively parallel scRNA-seq (Haber et al., 2017) (Methods). Applicants obtained 36,797 and 21,270 high quality cells passing initial filtering (Methods) from PP and LP regions, respectively.
# Overall, Applicants annotated 27 cell subsets across the two compartments, spanning T cells, B cells, ILCs, dendritic cells (DCs), myeloid cells and stromal cells, in frequencies ranging from 0.07% to 14%. Briefly, Applicants first partitioned the cells from the PP regions by unsupervised clustering (Methods) into 46 clusters, retained the 97% of cells that were robustly assigned cell identities in each cluster (Methods), assigned the cells from the LP regions to the 46 clusters using a classifier (Methods), and visualized the data with scvis (Ding et al., 2018), a deep generative model-based method (FIGS. 1B and 8C, Methods). Next, Applicants identified genes that were differentially expressed between the cells in each cluster and the remaining cells (Table 1, Methods), as well as between pairs of clusters (Table 2), to elucidate identities of similar cell types/states. Applicants excluded from downstream analysis clusters mostly consisting of contaminants from epithelium, likely doublets, or cells with a small number of Unique Molecular Identifiers (UMIs) (FIGS. 1C and 8D), or lacking distinct markers (Methods). Altogether, Applicants retained 27 clusters spanning 85% of the cells and each associated with distinct marker genes (FIG. 8E, Methods).
# To induce allergic reaction to OVA, 6 to 7 weeks old mice were sensitized twice, two weeks apart, with 50 μg of OVA plus 1 mg of aluminum potassium sulfate adjuvant via intraperitoneal injection. Two weeks later, mice were orally administered with 50 mg of OVA on every other day for a total of five times. 1 μg of α-CGRP peptide was administered simultaneously when indicated. Mice were deprived of food for 3-4 hours in cages with wood chip bedding for limiting antigen degradation in the stomach before each intragastric challenge.
# Isolation of cells from Peyer's patches (PPs). Peyer's patches (PPs) were carefully dissected from the small intestine under a stereo microscope using a fine scissor, pierced once with a fine forcep. Tissues were digested in freshly made digestion buffer (RPMI-1640 containing 100 μg/ml Liberase™ and 50 μg/ml DNase I at 37° C. on a roto-mixer. After 15 min, tissues were very gently mixed using a 1 ml pipette. The supernatant was collected and added to ice-cold MACS buffer (pH 7.4; PBS plus 2% FCS and 2 mM EDTA). Pre-warmed (37° C.) fresh digestion buffer was added to the remaining tissues. After rotation at 37° C. for 15 min, the mixture was vigorously mixed using a 1 ml pipette for 1 min. Supernatants from the two steps were combined and passed through 70 μm filters and stained for FACS (below).
# Isolation of cells from the lamina propria (LP). The small intestines were opened longitudinally and washed in ice-cold PBS. For scRNA-seq, roughly 0.5 cm of fragments from each of the distal, middle and proximal regions without visible PPs were collected. Epithelial cells were dissociated by tissue rotation in pre-warmed (37° C.) PBS containing 10 mM EDTA at 37° C. for 15 min, followed by additional incubation on ice for 15 min. Tissues were then shaken vigorously. […]
molecule,measurement,setting,value
B1,Mcpt1: percentage of expressing cells in OVA-treated group,,0.35
same,Mcpt2: percentage of expressing cells in OVA-treated group,,0.212
same,Mir142hg: percentage of expressing cells in OVA-treated group,,0.169
same,Mpeg1: percentage of expressing cells in OVA-treated group,,0.992
same,Napsa: percentage of expressing cells in OVA-treated group,,0.888
same,Neat1: percentage of expressing cells in OVA-treated group,,0.885
same,Nfkbia: percentage of expressing cells in OVA-treated group,,0.661
same,Nfkbiz: percentage of expressing cells in OVA-treated group,,0.336
same,Npc2: percentage of expressing cells in OVA-treated group,,0.985
same,Nr4a1: percentage of expressing cells in OVA-treated group,,0.508
same,Nr4a3: percentage of expressing cells in OVA-treated group,,0.134
same,Odc1: percentage of expressing cells in OVA-treated group,,0.366
same,Os9: percentage of expressing cells in OVA-treated group,,0.441
same,Pik3ip1: percentage of expressing cells in OVA-treated group,,0.423
same,Pim1: percentage of expressing cells in OVA-treated group,,0.509
same,Plek: percentage of expressing cells in OVA-treated group,,0.617
same,Plekho2: percentage of expressing cells in OVA-treated group,,0.201
same,Pltp: percentage of expressing cells in OVA-treated group,,0.878
same,Pnrc1: percentage of expressing cells in OVA-treated group,,0.706
same,Ppia: percentage of expressing cells in OVA-treated group,,0.998
same,Ppp1r16b: percentage of expressing cells in OVA-treated group,,0.237
same,Ppp2ca: percentage of expressing cells in OVA-treated group,,0.539
same,Psap: percentage of expressing cells in OVA-treated group,,0.997
same,Ptp4a1: percentage of expressing cells in OVA-treated group,,0.4
same,Ptpre: percentage of expressing cells in OVA-treated group,,0.392
same,Rel: percentage of expressing cells in OVA-treated group,,0.381
same,Rgs1: percentage of expressing cells in OVA-treated group,,0.466
same,Rilpl2: percentage of expressing cells in OVA-treated group,,0.851
same,Rnase6: percentage of expressing cells in OVA-treated group,,0.991
same,Rnf19b: percentage of expressing cells in OVA-treated group,,0.255
same,Rpn2: percentage of expressing cells in OVA-treated group,,0.664
same,Runx3: percentage of expressing cells in OVA-treated group,,0.53
same,S1pr4: percentage of expressing cells in OVA-treated group,,0.351
same,Sell: percentage of expressing cells in OVA-treated group,,0.983
same,Selplg: percentage of expressing cells in OVA-treated group,,0.992
same,Sf3b1: percentage of expressing cells in OVA-treated group,,0.706
same,Siah2: percentage of expressing cells in OVA-treated group,,0.253
same,Skil: percentage of expressing cells in OVA-treated group,,0.435
same,Sla2: percentage of expressing cells in OVA-treated group,,0.735
same,Smc6: percentage of expressing cells in OVA-treated group,,0.849
same,Socs3: percentage of expressing cells in OVA-treated group,,0.55
same,Spsb2: percentage of expressing cells in OVA-treated group,,0.187
same,Tgif1: percentage of expressing cells in OVA-treated group,,0.115
same,Tnfaip8l2: percentage of expressing cells in OVA-treated group,,0.512
same,Traf4: percentage of expressing cells in OVA-treated group,,0.535
same,Trim25: percentage of expressing cells in OVA-treated group,,0.339
same,VgIl4: percentage of expressing cells in OVA-treated group,,0.34
same,Vps37b: percentage of expressing cells in OVA-treated group,,0.424
same,Wnk1: percentage of expressing cells in OVA-treated group,,0.605
same,Zc3h12a: percentage of expressing cells in OVA-treated group,,0.135
same,Zfand5: percentage of expressing cells in OVA-treated group,,0.423
same,Zfp36l2: percentage of expressing cells in OVA-treated group,,0.783
same,AY036118: LN (average fold change),OVA vs PBS,−0.256
same,Atf3: LN (average fold change),OVA vs PBS,−0.693
same,Atp5h: LN (average fold change),OVA vs PBS,0.168
same,B3gnt8: LN (average fold change),OVA vs PBS,0.265
same,Bcl2l11: LN (average fold change),OVA vs PBS,−0.499
same,Bhlhe40: LN (average fold change),OVA vs PBS,−0.297
same,Bloc1s2: LN (average fold change),OVA vs PBS,0.218
same,Btg2: LN (average fold change),OVA vs PBS,−0.156
same,Ccl4: LN (average fold change),OVA vs PBS,0.241
same,Cd68: LN (average fold change),OVA vs PBS,0.204
same,Cd83: LN (average fold change),OVA vs PBS,−0.472
same,Cdv3: LN (average fold change),OVA vs PBS,−0.219
same,Clcn3: LN (average fold change),OVA vs PBS,−0.239
same,Clec10a: LN (average fold change),OVA vs PBS,0.327
same,Clec2d: LN (average fold change),OVA vs PBS,0.409
same,Coq10b: LN (average fold change),OVA vs PBS,−0.336
same,Crem: LN (average fold change),OVA vs PBS,−0.279
same,Cxcr3: LN (average fold change),OVA vs PBS,0.302
same,Cxcr4: LN (average fold change),OVA vs PBS,0.491
same,D13Ertd608e: LN (average fold change),OVA vs PBS,0.276
same,Ddit4: LN (average fold change),OVA vs PBS,1.322
same,Ddx3x: LN (average fold change),OVA vs PBS,−0.202
same,Defa24: LN (average fold change),OVA vs PBS,−1.145
